How the values were obtained:
[1] = target: HLA class II antigens (HLA-DR, HLA-DQ and HLA-DP); assay: Luminex, Labscreen Mixed, each of the 5 class II bead types, antibody at 2 µg/ml
[2] = target: HLA class II antigens (HLA-DR, HLA-DQ and HLA-DP); assay: Luminex dose/response, average over 5 class II bead types, antibody at 2 × 10^0 µg/ml
[3] = target: HLA class II antigens (HLA-DR, HLA-DQ and HLA-DP); assay: Luminex dose/response, average over 5 class II bead types, antibody at 2 × 10^-3 µg/ml
[4] = target: HLA class II antigens (HLA-DR, HLA-DQ and HLA-DP); assay: Luminex dose/response, average over 5 class II bead types, antibody at 5 × 10^-1 µg/ml
[5] = target: HLA class II antigens (HLA-DR, HLA-DQ and HLA-DP); assay: Luminex dose/response, average over 5 class II bead types, antibody at 5 × 10^-4 µg/ml
[6] = target: HLA class II antigens (HLA-DR, HLA-DQ and HLA-DP); assay: Luminex dose/response, average over 5 class II bead types, antibody at 7.8 × 10^-3 µg/ml
[7] = target: HLA class II antigens (HLA-DR, HLA-DQ and HLA-DP); assay: Luminex dose/response, average over 5 class II bead types, antibody at 1.25 × 10^-1 µg/ml
[8] = target: HLA class II antigens (HLA-DR, HLA-DQ and HLA-DP); assay: Luminex dose/response, average over 5 class II bead types, antibody at 3.13 × 10^-2 µg/ml
[9] = target: HLA class II antigens (HLA-DR, HLA-DQ and HLA-DP); assay: Boltzmann sigmoid fit of the Luminex titration curve; asymptote at infinite concentration
[10] = target: HLA class II antigens (HLA-DR, HLA-DQ and HLA-DP); assay: Boltzmann sigmoid fit of the Luminex titration curve; asymptote as the concentration tends to 0
[11] = target: HLA class II antigens (HLA-DR, HLA-DQ and HLA-DP); assay: Boltzmann sigmoid fit of the Luminex titration curve; concentration at 50% of the specific signal (MAX-MIN)

B1: monoclonal chimeric immunoglobulin Hu-IgG1 K [F3.3] (antibody, V domains shown)
VH: EVKLEESGGGLVQPGGSMKLSCVASGFTFSNSWMNWVRQSPEKGLEWVAEIRLKSNNYATRYAESVKGRFTISRDDSKSSVYLQMNNLRSEDTAIYYCTPLSYSFDYWGQGTTVTVST
VL: QIVLTQSPAIMSASPGEKVTMTCSASSIVRYMYWFQQKPGSSPRLLIYDTSSLSSGVPVRFSGSGSGTSYSLTISRMEAEDAATYFCQQWSSYPLTFGGGTKLEIKR
A fluorescence (average fluorescence units) [1] of 22000, an Average fluorescence intensity (fluorescence intensity) [2] of 23600 and an Average fluorescence intensity (fluorescence intensity) [3] of 1090 were found for B1 in this work. It also gave an Average fluorescence intensity (fluorescence intensity) [4] of 22800, an Average fluorescence intensity (fluorescence intensity) [5] of 316 and an Average fluorescence intensity (fluorescence intensity) [6] of 3520. For the same binder, the Average fluorescence intensity (fluorescence intensity) [7] was 18000, the Average fluorescence intensity (fluorescence intensity) [8] was 9130 and the MAX [9] was 24600 fluorescence. For the same binder, the MIN [10] was 88 fluorescence and the EC50 [11] was 0.05 µg/mL.

From patent US9637538
